Reference: patent publication US9266964
Where a chain is given by its changes, count along the chain named.

B1: M197-A01 (Fab, V domains shown)
VH: EVQLLESGGGLVQPGGSLRLSCAASGFTFSIYDMIWVRQAPGKGLEWVSSIYPSGGNTSYADSVKGRFTISRDNSKNTLYLQMNSLRAEDTAVYYCAYRRTGIPRRDAFDIWGQGTMVTVSS
VL: DIQMTQSPSTLSASVGDRVTITCRASQSISSWLAWYQQKPGKAPNLLIYKASTLESGVPSRFSGSGSGTEFTLTISSLQPDDFATYYCQQYNTYWTFGQGTKVEIK
B2: M198-C05 (Fab, V domains shown)
VH: B1 VH with I31R, D33K, I35Y, S50V, Y52G, N57A, S59F
VL: B1 VL
B3: M198-F04 (Fab, V domains shown)
VH: B1 VH with I35W, Y52R, N57I, S59K
VL: B1 VL
B4: M198-E02 (Fab, V domains shown)
VH: B1 VH with D33S, I35Y, S50Y, Y52R, S59K
VL: B1 VL
B5: M198-B12 (Fab, V domains shown)
VH: B1 VH with I31K, D33S, I35A, S50G, N57R, S59L
VL: B1 VL
B6: M197-F03 (Fab, V domains shown)
VH: B1 VH with D33S, I35F, Y52G, N57V, S59H
VL: B1 VL
B7: M197-H10 (Fab, V domains shown)
VH: B1 VH with I31S, D33N, I35H, Y52V, N57K, S59N
VL: B1 VL
B8: M195-C12 (Fab, V domains shown)
VH: EVQLLESGGGLVQPGGSLRLSCAASGFTFSMYQMFWVRQAPGKGLEWVSSISPGGGTQYADSVKGRFTISRDNSKNTLYLQMNSLRAEDTAVYYCAYRRTGIPRRDAFDIWGQGTMVTVSS
VL: B1 VL
B9: M197-F01 (Fab, V domains shown)
VH: B1 VH with D33H, I35Y, Y52G, N57P, S59G
VL: B1 VL
B10: M198-B09 (Fab, V domains shown)
VH: B1 VH with I31V, D33S, I35T, Y52G, P53S, N57S, S59T
VL: B1 VL
B11: M198-A07 (Fab, V domains shown)
VH: B1 VH with I31R, D33Q, I35H, S50W, Y52S, N57I, S59G
VL: B1 VL
B12: M195-D12 (Fab, V domains shown)
VH: B1 VH with D33G, I35F, S50G, Y52G, N57P, S59K
VL: B1 VL
B13: M201-H06 (Fab, V domains shown)
VH: B1 VH with I31H, D33I, I35M, S50G, P53S, N57I, S59V, I103V
VL: B1 VL
B14: M202-F06 (Fab, V domains shown)
VH: B1 VH with I31H, D33I, I35M, S50G, P53S, N57I, S59V, I103V, R106W
VL: B1 VL
B15: M198-H02 (Fab, V domains shown)
VH: B8 VH with M31P, Q33N, F35Y, S50W, S52V, G56V, Q58K
VL: B1 VL
B16: M197-E12 (Fab, V domains shown)
VH: B1 VH with I31T, D33T, I35R, N57K, S59Q
VL: B1 VL
B17: M198-C09 (Fab, V domains shown)
VH: B1 VH with D33T, I35Y, Y52S, N57W, S59Y
VL: B1 VL
B18: M195-B12 (Fab, V domains shown)
VH: B1 VH with I31K, D33W, I35Y, S50Y, Y52R, N57Q, S59Y
VL: B1 VL
B19: M202-H05 (Fab, V domains shown)
VH: B1 VH with I31H, D33I, I35M, S50G, P53S, N57I, S59V, Y98F, I103V, A108V
VL: B1 VL
B20: M198-C10 (Fab, V domains shown)
VH: EVQLLESGGGLVQPGGSLRLSCAASGFTFSHYMGMNWVRQAPGKGLEWVSSIVPSGGWTQYADSVKGRFTISRDNSKNTLYLQMNSLRAEDTAVYYCAYRRTGIPRRDAFDIWGQGTMVTVSS
VL: B1 VL
B21: M198-A09 (Fab, V domains shown)
VH: B1 VH with D33F, I35S, Y52R, P53S, N57P, S59W
VL: B1 VL
B22: M198-E11 (Fab, V domains shown)
VH: B1 VH with I31T, D33S, I35Y, N57L, S59W
VL: B1 VL
B23: M195-B02 (Fab, V domains shown)
VH: B1 VH with I31P, D33L, I35W, S50Y, Y52G, N57P, S59H
VL: B1 VL
B24: M198-G07 (Fab, V domains shown)
VH: B1 VH with I35T, N57Q, S59I
VL: B1 VL
B25: M198-H08 (Fab, V domains shown)
VH: B1 VH with I35Y, Y52G, N57P, S59A
VL: B1 VL
B26: M202-A01 (Fab, V domains shown)
VH: B1 VH with I31H, D33I, I35M, S50G, P53S, N57I, S59V, T101I, I103V
VL: B1 VL
B27: M198-F08 (Fab, V domains shown)
VH: B1 VH with I31V, D33S, I35W, Y52S, P53S, N57M, S59E
VL: B1 VL
B28: M198-C06 (Fab, V domains shown)
VH: B1 VH with I31Q, D33F, I35H, S50Y, N57M, S59E
VL: B1 VL
B29: M202-A04 (Fab, V domains shown)
VH: B1 VH with I31H, D33I, I35M, S50G, P53S, N57I, S59V, T101K, A108D
VL: B1 VL
B30: M200-E11 (Fab, V domains shown)
VH: B1 VH with I31H, D33I, I35M, S50G, P53S, N57I, S59V, I103V, I111N
VL: B1 VL
B31: M198-F12 (Fab, V domains shown)
VH: B1 VH with D33T, I35M, Y52W, P53S, N57Q, S59K
VL: B1 VL
B32: M196-H03 (Fab, V domains shown)
VH: B8 VH with M31R, Q33V, F35W, G54S, G56D, Q58H
VL: B1 VL
B33: M198-E09 (Fab, V domains shown)
VH: B1 VH with I35N, N57R, S59R
VL: B1 VL
B34: M202-G03 (Fab, V domains shown)
VH: EVQLLESGGGLVQPGGSLRLSCAASGFTFSHYIMMWVRQAPGKGLEWVSGIYSSGGITVYADSVKGRFTISRDNSKNTLYLQMNSLRAEDTAVYYCAFRRTGVPRRDSFEIWGQGTMVTVSS
VL: B1 VL
B35: M202-B04 (Fab, V domains shown)
VH: B34 VH with F98Y, T101S, S108D, E110D
VL: B1 VL
B36: M197-A08 (Fab, V domains shown)
VH: B1 VH with D33S, I35Q, Y52G, P53S, N57K, S59L
VL: B1 VL
B37: M198-A02 (Fab, V domains shown)
VH: B1 VH with I31R, D33S, Y52W, P53S, N57A, S59E
VL: B1 VL
B38: M200-H07 (Fab, V domains shown)
VH: B34 VH with F98Y, D107N, S108A, E110D, I111N
VL: B1 VL
B39: M197-H11 (Fab, V domains shown)
VH: B1 VH with D33N, N57W, S59T
VL: B1 VL
B40: M202-E06 (Fab, V domains shown)
VH: B34 VH with F98Y, T101R, S108D, E110D
VL: B1 VL

The binders below were run against human plasma kallikrein (human, UniProt P03952 20-390; P03952 391-638) (assay: cell-based or functional assay).
Chain of human plasma kallikrein (P03952 20-390, chain 1 of 2): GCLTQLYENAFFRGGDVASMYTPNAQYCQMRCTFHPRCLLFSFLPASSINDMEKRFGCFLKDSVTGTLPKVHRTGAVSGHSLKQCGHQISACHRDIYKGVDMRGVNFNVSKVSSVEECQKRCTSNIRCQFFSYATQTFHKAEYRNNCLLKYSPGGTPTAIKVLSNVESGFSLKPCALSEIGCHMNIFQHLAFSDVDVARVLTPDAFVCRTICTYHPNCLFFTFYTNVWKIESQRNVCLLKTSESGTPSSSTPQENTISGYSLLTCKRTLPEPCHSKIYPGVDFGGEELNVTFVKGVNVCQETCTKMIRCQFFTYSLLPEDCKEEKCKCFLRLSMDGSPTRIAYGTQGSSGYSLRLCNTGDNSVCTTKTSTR
Chain of human plasma kallikrein (P03952 391-638, chain 2 of 2): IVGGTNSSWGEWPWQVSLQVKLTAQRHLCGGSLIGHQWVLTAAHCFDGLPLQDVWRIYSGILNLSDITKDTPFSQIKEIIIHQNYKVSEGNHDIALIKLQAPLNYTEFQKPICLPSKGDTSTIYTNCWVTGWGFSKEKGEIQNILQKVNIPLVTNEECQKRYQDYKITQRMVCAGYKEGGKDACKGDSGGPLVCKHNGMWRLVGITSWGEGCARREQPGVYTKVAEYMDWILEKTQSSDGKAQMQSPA
With B1 the “% inhibition at 10 nM” value was 95.3%.
For B2, the “% inhibition at 10 nM” value was 83.9%.
For B3, the “% inhibition at 10 nM” value was 92.9%.
B4 was tested, and the “% inhibition at 10 nM” value was 90.3%.
B5 was tested, and the “% inhibition at 10 nM” value was 80.7%.
For B6, the “% inhibition at 10 nM” value was 90.7%.
B7 was tested, and the “% inhibition at 10 nM” value was 94.1%.
With B8 the “% inhibition at 10 nM” value was 84.2%.
With B9 the “% inhibition at 10 nM” value was 92.6%.
In the case of B10, the “% inhibition at 10 nM” value is reported as 93.5%.
With B11 the “% inhibition at 10 nM” value was 86.1%.
With B12 the “% inhibition at 10 nM” value was 90.8%.
B13 was tested, and the “% inhibition at 10 nM” value was 84.6%.
B14 was tested, and the “% inhibition at 10 nM” value was 84.2%.
B15 was tested, and the “% inhibition at 10 nM” value was 85.8%.
With B16 the “% inhibition at 10 nM” value was 93%.
With B17 the “% inhibition at 10 nM” value was 75.4%.
For B18, the “% inhibition at 10 nM” value was 87.7%.
With B19 the “% inhibition at 10 nM” value was 84%.
With B20 the “% inhibition at 10 nM” value was 93%.
For B21, the “% inhibition at 10 nM” value was 77.3%.
With B22 the “% inhibition at 10 nM” value was 92.5%.
In the case of B23, the “% inhibition at 10 nM” value is reported as 75.1%.
In the case of B24, the “% inhibition at 10 nM” value is reported as 94.9%.
With B25 the “% inhibition at 10 nM” value was 92.3%.
In the case of B26, the “% inhibition at 10 nM” value is reported as 88.9%.
B27 was tested, and the “% inhibition at 10 nM” value was 91.8%.
For B28, the “% inhibition at 10 nM” value was 76.5%.
With B29 the “% inhibition at 10 nM” value was 81.2%.
With B30 the “% inhibition at 10 nM” value was 83.2%.
With B31 the “% inhibition at 10 nM” value was 74.6%.
B32 was tested, and the “% inhibition at 10 nM” value was 83.9%.
In the case of B33, the “% inhibition at 10 nM” value is reported as 93.1%.
For B34, the “% inhibition at 10 nM” value was 88.3%.
With B35 the “% inhibition at 10 nM” value was 81.9%.
With B36 the “% inhibition at 10 nM” value was 93.7%.
B37 was tested, and the “% inhibition at 10 nM” value was 89.1%.
B38 was tested, and the “% inhibition at 10 nM” value was 85.4%.
In the case of B39, the “% inhibition at 10 nM” value is reported as 92.9%.
For B40, the “% inhibition at 10 nM” value was 91.5%.
